This note sets out measurements from US20220249369A1, “BIOLOGICAL BITS AS COMPUTABLE ELEMENTS WITHIN LIVING SYSTEMS” (GEORGIA TECH RESEARCH CORPORATION, priority 2018, published 2022).

Where no end group is shown, it is not given here. [ ]: non-standard residue; d: D form. The star is where a group is joined. 5FAM = O=C1OC2(c3ccc(O)cc3Oc3cc(O)ccc32)c2ccc(C(=O)*)cc21

In assay [1] the target is plasmin (Homo sapiens, UniProt P00747). Briefly: Protease cleavage assay, U-gate on two-state protease bit. Conditions: n=3; for state probability (relative cleavage velocity) after first U-gate: plasmin exposed to state 0 and state 1 substrates. It is filed as biochemical. As for the experimental part: Protease cleavage assays: All protease cleavage assays were performed with a BioTek Cytation 5 Imaging Plate Reader, taking fluorescent measurements at 485/528 nm and 540/575 nm (excitation/emission) for read-outs measuring peptide substrates terminated with FITC (Fluorescein isothiocyanate) and 5-TAMRA (5-Carboxytetramethylrhodamine), respectively. Kinetic measurements were taken every minute over the course of 60-120 minutes at 37° C. West Nile Virus NS3 protease (WNVp) and Tobacco Etch Virus protease (TEVp), along with their substrates, inhibitors and buffers were obtained from Anaspec, Inc. (Fremont, Calif.). Phospholipase C (PLC), Phosphatidylinositol-Specific (from Bacillus cereus) was purchased from Thermo Fisher Scientific (Waltham, Mass.). Activity RFU measurements were normalized to time 0 measurement, and as such represent fold change in signal. Granzyme B (GzmB) was purchased from PeproTech, Inc. (Rocky Hill, N.J.). Thrombin and Factor XIa were purchased from Haematologic Technologies (Essex, Vt.). Outer Membrane Protease T (OmpT, Protease 7) was purchased from Lifespan Biosciences (Seattle, Wash.). C1r was purchased from Millipore Sigma (Burlington, Mass.). GzmB, Thrombin, Factor XIa, and C1r fluorescent peptide substrates were custom ordered from CPC Scientific (Sunnyvale, Calif.). OmpT fluorescent peptide substrate was custom ordered from Genscript (Piscataway, N.J.). See Table 1 and Table 2 for more information regarding proteases, substrates, and inhibitors.
Chain of plasmin (P00747 581-810 limits assumed, species assumed): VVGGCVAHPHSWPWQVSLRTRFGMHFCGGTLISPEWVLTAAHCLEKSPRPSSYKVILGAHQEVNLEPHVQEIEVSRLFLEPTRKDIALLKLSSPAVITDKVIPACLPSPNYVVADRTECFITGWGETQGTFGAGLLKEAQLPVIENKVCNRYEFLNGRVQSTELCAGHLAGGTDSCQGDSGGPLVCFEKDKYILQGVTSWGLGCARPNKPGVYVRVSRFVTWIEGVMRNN
Chain of plasmin (P00747 97-580 partner limits assumed, species assumed): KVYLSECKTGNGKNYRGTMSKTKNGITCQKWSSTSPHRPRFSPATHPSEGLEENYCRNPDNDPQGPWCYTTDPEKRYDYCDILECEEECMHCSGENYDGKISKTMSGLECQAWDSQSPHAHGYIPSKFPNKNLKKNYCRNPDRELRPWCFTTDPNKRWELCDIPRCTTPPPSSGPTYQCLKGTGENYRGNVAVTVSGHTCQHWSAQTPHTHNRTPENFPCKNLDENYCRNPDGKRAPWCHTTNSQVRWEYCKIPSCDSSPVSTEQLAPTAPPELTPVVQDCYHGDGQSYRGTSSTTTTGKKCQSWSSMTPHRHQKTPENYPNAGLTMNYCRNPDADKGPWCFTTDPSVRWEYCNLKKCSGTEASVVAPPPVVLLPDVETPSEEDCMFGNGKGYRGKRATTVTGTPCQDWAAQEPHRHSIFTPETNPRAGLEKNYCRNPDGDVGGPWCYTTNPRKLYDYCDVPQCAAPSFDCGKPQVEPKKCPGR
For FIGS. 5G-5I and 5N-5Q: 2 uL of thrombin (10.1 mg/mL) or plasmin (6.9 mg/mL) were added to 18 uL of respective state 1 or state 0 substrate (2 uM). Velocities of Thrombin and Plasmin cutting their respective state 1 or state 0 substrates were calculated over the first 5 minutes of incubation. These velocities were normalized by the sum of the state 1 and state 0 velocity. Therefore, the values plotted as probability in FIG. 4 are relative velocities. […]

In assay [2] the test system is DH5α Escherichia coli. It is filed as cell-based. As to conditions: 37° C., 1 hour. The source says: FIGS. 8A-8B show the results of unlocking peptide caged liposomes with increasing peptide crosslinking densities (levels 0-8). Eight levels of increasing peptide cage crosslinking were used to determine the number of bacteria required to unlock each level. FIG. 8C is a graph showing bacterial cytotoxicity measurement of drug-loaded liposomes. Conditions are moving from left to right: Bacteria only control, bacteria plus free drug, bacteria plus drug-loaded liposome without lipase, and bacteria plus drug-loaded liposome with lipase. Samples were incubated with bacteria at 37° C. for eight hours and plated. CFU were quantified to estimate bacteria viability. Error bars are plotted as standard deviation (n=3). RFU stands for “Relative Fluorescence Unit” and is plotted as fold change (FC) from initial fluorescence at time=0. Bacterial Culture and Cytotoxicity Assay: DH5α Escherichia coli were cultured in LB broth (Lennox) at 37° C. and plated on LB agar (Lennox) plates. LB broth was purchased from Millipore Sigma (Burlington, Mass.) and LB agar was purchased from Invitrogen (Carlsbad, Calif.). AMP and locked AMP were custom ordered from Genscript (Piscataway, N.J.). […] Bacterial cell viability was measured by making eight 10-fold serial dilutions, and plating three 10 μL spots on an LB agar plate. Plates were incubated overnight at 37° C., and CFUs were counted. […]

In the case of “5FAM-GLQRALEI-K(CPQ2)-k-C (5FAM-GLQRALEIK(CPQ2)[dK]C) [CC9, quenched fluorescent plasmin substrate (state 0)]”, in assay [1], the “state probability (relative cleavage velocity) after first U-gate” value is reported as 45%. Moreover, the “state 0 probability (relative cleavage velocity) after second U-gate” value in assay [1] (state 0 substrate added in large molar excess) worked out at 93%.

As for “5FAM-KYLGRSYKV-K(CPQ2)-C (5FAM-KYLGRSYKVK(CPQ2)C) [CC6, quenched fluorescent protease substrate (state 1)]”, the “state probability (relative cleavage velocity) after first U-gate” value in assay [1] came out at 55%.

As for “EEEEEEEEENLYFQGRRRRRRRRR [Locked AMP p1, polyarginine AMP locked by polyglutamic acid via TEV-cleavable linker]”, the “cytolytic activity against bacteria compared to untreated controls” value in assay [2] (locked drug without protease) is “no significant cytolytic activity”. For the same substance, the “reduction in bacterial colonies” value in assay [2] (protease-cleaved (TEVp)) is “significant reduction in bacterial colonies”.
